Assay results published in the RNAGym collection of RNA variant scans (doi:10.7554/elife.80360).

B1: HDV Ribozyme (parent)
chain: GGCCGGCAUGGUCCCAGCCUCCUCGCUGGCGCCGGCUGGGCAACAUUCCGAGGGGACCGUCCCCUCGGUAAUGGCGAAUGGGACCCA

Variants of: B1
Experiment: self-cleavage, relative activity (ratio to wild type); higher = more cleavage; co-transcriptional

Question: Which self-cleavage does the source give for A42G G81C here?
Answer: The self-cleavage was 0.0386.

Question: With G31U C36G as the variant, how does the self-cleavage read?
Answer: Its self-cleavage is 0.0906.

Question: For G2U C63A, which self-cleavage is on record?
Answer: The self-cleavage was 0.101.

Question: With C7A U60A as the variant, how does the self-cleavage read?
Answer: The self-cleavage was 0.665.

Question: For G54A G74U, which self-cleavage is on record?
Answer: The self-cleavage was 0.562.

Question: For U20G C85G, which self-cleavage is on record?
Answer: The self-cleavage was 0.158.

Question: Which self-cleavage does the source give for G29A A70G here?
Answer: Its self-cleavage is 0.17.

Question: With C33G G35U as the variant, how does the self-cleavage read?
Answer: Its self-cleavage is 0.142.

Question: Which self-cleavage does the source give for G25A G74A here?
Answer: Its self-cleavage is 0.0767.

Question: For C4A U23A, which self-cleavage is on record?
Answer: Its self-cleavage is 0.309.

Question: For G25U C26A, which self-cleavage is on record?
Answer: Its self-cleavage is 0.217.

Question: With U27A C58U as the variant, how does the self-cleavage read?
Answer: The self-cleavage was 0.937.

Question: With C66U G73U as the variant, how does the self-cleavage read?
Answer: Its self-cleavage is 0.284.

Question: Which self-cleavage does the source give for G25C C61A here?
Answer: Its self-cleavage is 0.201.

Question: Which self-cleavage does the source give for G10C C36U here?
Answer: Its self-cleavage is 0.554.

Question: Which self-cleavage does the source give for G1U G59C here?
Answer: Its self-cleavage is 0.277.

Question: With G67A G68U as the variant, how does the self-cleavage read?
Answer: Its self-cleavage is 0.79.

Question: With G31A A51G as the variant, how does the self-cleavage read?
Answer: Its self-cleavage is 0.554.

Question: For G35A U60A, which self-cleavage is on record?
Answer: The self-cleavage was 0.596.

Question: With C7U A45U as the variant, how does the self-cleavage read?
Answer: The self-cleavage was 0.415.

Question: Which self-cleavage does the source give for C58A G80C here?
Answer: Its self-cleavage is 0.0707.

Question: For A45U G80U, which self-cleavage is on record?
Answer: Its self-cleavage is 0.153.

Question: With U47G A70G as the variant, how does the self-cleavage read?
Answer: The self-cleavage was 1.01.

Question: For C24U A78G, which self-cleavage is on record?
Answer: The self-cleavage was 0.397.

Question: For C30A G74A, which self-cleavage is on record?
Answer: The self-cleavage was 0.123.

Question: For C41U U72C, which self-cleavage is on record?
Answer: Its self-cleavage is 0.375.

Question: For G68C A83G, which self-cleavage is on record?
Answer: The self-cleavage was 0.356.

Question: For G6A C15U, which self-cleavage is on record?
Answer: Its self-cleavage is 0.431.

Question: For C22U G31U, which self-cleavage is on record?
Answer: The self-cleavage was 0.0817.

Question: Which self-cleavage does the source give for G17U U60G here?
Answer: Its self-cleavage is 0.522.

Question: Which self-cleavage does the source give for C32A C66A here?
Answer: Its self-cleavage is 0.181.

Question: With C18A G76U as the variant, how does the self-cleavage read?
Answer: Its self-cleavage is 0.228.

Question: For C13G A83U, which self-cleavage is on record?
Answer: Its self-cleavage is 0.

Question: Which self-cleavage does the source give for G25C G59C here?
Answer: The self-cleavage was 0.131.

Question: With C66A U72G as the variant, how does the self-cleavage read?
Answer: The self-cleavage was 0.332.

Question: Which self-cleavage does the source give for G29C A45G here?
Answer: Its self-cleavage is 0.

Question: With G5A C41G as the variant, how does the self-cleavage read?
Answer: Its self-cleavage is 0.

Question: Which self-cleavage does the source give for C14A C19G here?
Answer: Its self-cleavage is 0.

Question: For G6C A56G, which self-cleavage is on record?
Answer: Its self-cleavage is 0.453.

Question: With G50C A51U as the variant, how does the self-cleavage read?
Answer: Its self-cleavage is 0.755.

Question: Which self-cleavage does the source give for G5U G31C here?
Answer: The self-cleavage was 0.0723.

Question: For U47C C86A, which self-cleavage is on record?
Answer: The self-cleavage was 0.806.

Question: Which self-cleavage does the source give for C4G G80U here?
Answer: Its self-cleavage is 0.0953.

Question: Which self-cleavage does the source give for C22A A70C here?
Answer: The self-cleavage was 0.17.

Question: With G1C G2A as the variant, how does the self-cleavage read?
Answer: Its self-cleavage is 0.138.

Question: Which self-cleavage does the source give for C19U G50A here?
Answer: Its self-cleavage is 0.245.

Question: With C21G C58A as the variant, how does the self-cleavage read?
Answer: The self-cleavage was 0.0396.

Question: For U27G G40U, which self-cleavage is on record?
Answer: The self-cleavage was 0.293.

Question: Which self-cleavage does the source give for G40A C44G here?
Answer: Its self-cleavage is 0.302.

Question: Which self-cleavage does the source give for G11U A45G here?
Answer: Its self-cleavage is 0.587.

Question: With G40A C75U as the variant, how does the self-cleavage read?
Answer: The self-cleavage was 0.157.

Question: Which self-cleavage does the source give for C44A A77C here?
Answer: Its self-cleavage is 0.128.

Question: Which self-cleavage does the source give for U69C U79C here?
Answer: The self-cleavage was 0.404.

Question: For C18A G81A, which self-cleavage is on record?
Answer: Its self-cleavage is 0.0755.

Question: With C41G A56U as the variant, how does the self-cleavage read?
Answer: Its self-cleavage is 0.746.

Question: For A43U A78C, which self-cleavage is on record?
Answer: The self-cleavage was 0.0817.

Question: For G80C A87G, which self-cleavage is on record?
Answer: Its self-cleavage is 0.211.

Question: For U23G A56C, which self-cleavage is on record?
Answer: Its self-cleavage is 0.978.

Question: For C41U C58A, which self-cleavage is on record?
Answer: The self-cleavage was 0.962.

Question: Which self-cleavage does the source give for A42G C63A here?
Answer: Its self-cleavage is 0.359.

Question: For G17U C84A, which self-cleavage is on record?
Answer: The self-cleavage was 0.445.

Question: With C36G U60A as the variant, how does the self-cleavage read?
Answer: The self-cleavage was 0.0405.

Question: Which self-cleavage does the source give for C7G C30G here?
Answer: The self-cleavage was 0.119.

Question: For A45C U65A, which self-cleavage is on record?
Answer: Its self-cleavage is 0.87.

Question: Which self-cleavage does the source give for A45C A71G here?
Answer: The self-cleavage was 1.11.

Question: With G17C U69A as the variant, how does the self-cleavage read?
Answer: Its self-cleavage is 0.453.

Question: For G35A C63U, which self-cleavage is on record?
Answer: Its self-cleavage is 0.91.

Question: Which self-cleavage does the source give for C21G U23A here?
Answer: Its self-cleavage is 0.0536.

Question: For G52A U65G, which self-cleavage is on record?
Answer: The self-cleavage was 0.986.

Question: With G17U U27G as the variant, how does the self-cleavage read?
Answer: Its self-cleavage is 0.522.

Question: Which self-cleavage does the source give for U20G U46G here?
Answer: Its self-cleavage is 0.

Question: For G5A C64A, which self-cleavage is on record?
Answer: The self-cleavage was 0.198.

Question: For C21U C85A, which self-cleavage is on record?
Answer: Its self-cleavage is 0.366.

Question: With U23C A78U as the variant, how does the self-cleavage read?
Answer: The self-cleavage was 0.151.

Question: Which self-cleavage does the source give for U65C A87G here?
Answer: Its self-cleavage is 0.94.

Question: With U37C C63G as the variant, how does the self-cleavage read?
Answer: Its self-cleavage is 0.965.

Question: With C26G A77U as the variant, how does the self-cleavage read?
Answer: Its self-cleavage is 0.447.

Question: Which self-cleavage does the source give for C57G C84A here?
Answer: The self-cleavage was 0.933.

Question: With G1A G29C as the variant, how does the self-cleavage read?
Answer: Its self-cleavage is 0.181.

Question: For G35A G68U, which self-cleavage is on record?
Answer: Its self-cleavage is 0.584.

Question: With G6U U27A as the variant, how does the self-cleavage read?
Answer: The self-cleavage was 0.453.

Question: With G28U G73C as the variant, how does the self-cleavage read?
Answer: Its self-cleavage is 0.

Question: For U12A A87G, which self-cleavage is on record?
Answer: Its self-cleavage is 0.115.
